Measured values: patent US20250320281A1

How the values were obtained:
Experiment in all cases: cell-based or functional assay
[1] = molecular target: HIV-1 Env of pseudovirus MGRM-F1-018 (HIV-1)
[2] = molecular target: HIV-1 92BR020 envelope glycoprotein (Env) on pseudovirus (HIV-1)
[3] = molecular target: HIV-1 Env of isolate VLGCA1 (clade A pseudovirus) (HIV-1)
[4] = molecular target: HIV-1 envelope glycoprotein (Env) of isolate 92RW020, clade A (HIV-1)
[5] = molecular target: HIV-1 Env of isolate MGRM-D-019 (clade D pseudovirus) (HIV-1)
[6] = molecular target: HIV-1 Env of pseudovirus MGRM-AG-009 (clade CRF_AG) (HIV-1)
[7] = molecular target: HIV-1 Env of pseudovirus MGRM-G-019 (HIV-1, clade G isolate MGRM-G-019)
[8] = molecular target: HIV-1 Env of pseudovirus MGRM-AE-004 (clade CRF01_AE) (HIV-1)
[9] = molecular target: HIV-1 Env of isolate MGRM-D-001 (clade D pseudovirus) (HIV-1)
[10] = molecular target: HIV-1 Env of isolate 97ZA012 (clade C) (HIV-1 isolate 97ZA012)
[11] = molecular target: HIV-1 Env of isolate MGRM-Chronic-B-004, clade B, on pseudovirus (HIV-1)
[12] = molecular target: HIV-1 envelope glycoprotein (Env) of isolate 92UG031, clade A (HIV-1)
[13] = molecular target: HIV-1 Env of pseudovirus MGRM-F1-016 (HIV-1)
[14] = molecular target: HIV-1 Env of isolate MGRM-D-014 (clade D pseudovirus) (HIV-1)
[15] = molecular target: HIV-1 Env of isolate MGRM-D-011 (clade D pseudovirus) (HIV-1)
[16] = molecular target: HIV-1 Env of isolate MGRM-D-016 (clade D pseudovirus) (HIV-1)
[17] = molecular target: HIV-1 envelope glycoprotein (Env) of isolate MGRM-A-007, clade A (HIV-1)
[18] = molecular target: HIV-1 IAVI-C22 envelope glycoprotein (Env) on pseudovirus (HIV-1)
[19] = molecular target: HIV-1 Env of pseudovirus MGRM-Chronic-B-010 (HIV-1)

Sequence of 1443_C16 (PG16) (TCN-116) (antibody) (VH): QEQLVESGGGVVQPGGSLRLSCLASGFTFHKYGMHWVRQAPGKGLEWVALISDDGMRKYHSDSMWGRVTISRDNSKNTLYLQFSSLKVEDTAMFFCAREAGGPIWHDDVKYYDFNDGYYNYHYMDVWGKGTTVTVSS
Sequence of 1443_C16 (PG16) (TCN-116) (antibody) (VL): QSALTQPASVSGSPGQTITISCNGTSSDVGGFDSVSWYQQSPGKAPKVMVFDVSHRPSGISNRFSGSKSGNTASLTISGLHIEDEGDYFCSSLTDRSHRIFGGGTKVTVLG

| Substance | IC50 (µg/ml), pseudovirus neutralization [1] [µg/mL] | IC50, pseudovirus neutralization [2] [µg/mL] | IC50 (µg/ml), pseudovirus neutralization [3] [µg/mL] | IC50 (µg/ml), pseudovirus neutralization [4] [µg/mL] | IC50 (µg/ml), pseudovirus neutralization [5] [µg/mL] | IC50 [6] [µg/mL] | IC50 (µg/ml), pseudovirus neutralization [7] [µg/mL] | IC50 [8] [µg/mL] | IC50 (µg/ml), pseudovirus neutralization [9] [µg/mL] | IC50 (µg/ml), pseudovirus neutralization [10] [µg/mL] | IC50 (µg/ml), pseudovirus neutralization [11] [µg/mL] | IC50 (µg/ml), pseudovirus neutralization [12] [µg/mL] | IC50 (µg/ml), pseudovirus neutralization [13] [µg/mL] | IC50 (µg/ml), pseudovirus neutralization [14] [µg/mL] | IC50 (µg/ml), pseudovirus neutralization [15] [µg/mL] | IC50 (µg/ml), pseudovirus neutralization [16] [µg/mL] | IC50 (µg/ml), pseudovirus neutralization [17] [µg/mL] | IC50, pseudovirus neutralization [18] [µg/mL] | IC50 (µg/ml), pseudovirus neutralization [19] [µg/mL] |
| --- | --- | --- | --- | --- | --- | --- | --- | --- | --- | --- | --- | --- | --- | --- | --- | --- | --- | --- | --- |
| 4E10 (antibody) | 3.6 | 41.4 | 4.58 | 4.54 | 0.04 | 31.4 | 6.53 | 1.27 | 1.84 | 4.7 | 3.7 | 4.94 | 7.61 | 3.24 | 0.91 | 15.4 | 1.82 | 1.02 | 1.69 |
| 1443_C16 (PG16) (TCN-116) (antibody) | 0.01 | > 50 | 0.18 | 0.28 | 0.01 | > 50 | 1.21 | 0.002 | > 50 | 2.55 | 0.01 | 0.43 | 1.12 | 0.003 | 0.01 | 0.02 | 5.91 | 0.0687 | 0.01 |
| 1495_C14 (PGC14) (antibody) | > 50 | 0.637 | > 50 | 46 | > 50 | > 50 | > 50 | > 50 | > 50 | > 50 | > 50 | > 50 | > 50 | 48 | > 50 | > 50 | > 50 | 9.5 | 27 |
| b12 (antibody) | > 50 | 27.5 | > 50 | > 50 | > 50 | > 50 | 3.77 | > 50 | > 50 | > 50 | 0.26 | > 50 | > 50 | > 50 | 7.75 | 1.12 | > 50 | 3.6 | > 50 |
